The assay deals with S蛋白RBD-His (319Arg-532Asn) (2019-nCoV (SARS-CoV-2)) (UniProt P0DTC2). The assay is described as follows: BLI (Fortebio), RBD-His on Anti-Penta-HIS sensor, antibody in solution.

1 substance from patent CN111690058A can be followed below.

As for 对照抗体CR3022 (antibody), the Kd (commonly the free concentration of one partner at which half of the binding sites on the other are occupied at equilibrium, for simple one-to-one binding) amounted to 2.42 nM; the koff – broadly, the rate constant with which the complex falls apart – worked out at 0.000278 s⁻¹; the kon (in general, the second-order rate constant of association) came out at 115000 M⁻¹ s⁻¹.
